Target: mature type GnT-V
Test: cell-based or functional assay

- GnT-V activity in culture solution, PS-1 ΔE9 cells against control cells: 4 fold
- ratio of the GnT-V activity in culture solution (extracellular) to that in the cell, PS-1 ΔE9 cells: 3.5
- ratio of the GnT-V activity in culture solution (extracellular) to that in the cell, PS-1 ΔE9 cells against control cells: 3 fold
- ratio of the GnT-V activity in culture solution (extracellular) to that in the cell, control cells without high expression of variant presenilin-1: 1.2
Substance: γ-secretase (enzyme)

Reference: patent publication US20050148516A1
